Measurements from paper PMC11499381.
No end group written: not given here.

B1: Human calcitonin (peptide)
peptide: CGNLSTCMLGTYTQDFNKFHTFPQTAIGVGAP
modifications: ends and bridges not checked; cysteine pairing not given here

Key:
[1] = molecular target: CTR-C-V_(1–154)/RAMP1-C-V_(155–238) (human) (UniProt O60894)
[2] = molecular target: CTR/RAMP1-C-V_(155–238) (human) (UniProt O60894)
[3] = molecular target: CTR/N-V_(155–238)-RAMP1 (human) (UniProt O60894)
[4] = molecular target: WT CTR/RAMP1 (AMY1 receptor) (human) (UniProt O60894)
[5] = molecular target: CTR-C-V_(1–154)/RAMP1 (human) (UniProt O60894)
[6] = molecular target: N-V_(1–154)-CTR/N-V_(155–238)-RAMP1 (human) (UniProt O60894)
[7] = molecular target: N-V_(1–154)-CTR/RAMP1 (human) (UniProt O60894)

Chain of WT CTR (human) (P30988 25-474): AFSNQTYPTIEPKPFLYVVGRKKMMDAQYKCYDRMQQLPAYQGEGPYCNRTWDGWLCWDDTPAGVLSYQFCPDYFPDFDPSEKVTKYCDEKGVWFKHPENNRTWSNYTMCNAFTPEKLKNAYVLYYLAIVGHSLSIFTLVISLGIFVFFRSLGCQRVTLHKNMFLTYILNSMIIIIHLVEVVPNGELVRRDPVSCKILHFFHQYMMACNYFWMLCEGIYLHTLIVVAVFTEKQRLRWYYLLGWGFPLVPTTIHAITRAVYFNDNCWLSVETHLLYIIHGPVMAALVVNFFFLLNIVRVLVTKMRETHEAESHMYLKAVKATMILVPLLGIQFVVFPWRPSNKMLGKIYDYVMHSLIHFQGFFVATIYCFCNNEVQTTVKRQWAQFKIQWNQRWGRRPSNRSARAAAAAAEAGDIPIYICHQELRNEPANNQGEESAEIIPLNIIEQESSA

Emax of h-αCGRP-stimulated cAMP production, Cos7 cells, percent of the matched WT curve [1]	pEC50 of h-αCGRP-stimulated cAMP production, Cos7 cells, 15 min [1]	Emax of h-αCGRP-stimulated cAMP production, Cos7 cells, percent of the matched WT curve [2]	pEC50 of h-αCGRP-stimulated cAMP production, Cos7 cells, 15 min [2]	pEC50 of h-αCGRP-stimulated cAMP production, Cos7 cells, 15 min, CTR without RAMP1 (WT CTR (human))	Emax of h-αCGRP-stimulated cAMP production, Cos7 cells, percent of the matched WT curve [3]	pEC50 of h-αCGRP-stimulated cAMP production, Cos7 cells, 15 min [3]	pEC50 of h-αCGRP-stimulated cAMP production, Cos7 cells, 15 min (WT control of the N-terminal series) [4]	Emax of h-αCGRP-stimulated cAMP production, Cos7 cells, percent of the matched WT curve [5]	pEC50 of h-αCGRP-stimulated cAMP production, Cos7 cells, 15 min [5]	Emax of h-αCGRP-stimulated cAMP production, Cos7 cells, percent of the matched WT curve [6]	pEC50 of h-αCGRP-stimulated cAMP production, Cos7 cells, 15 min [6]	Emax of h-αCGRP-stimulated cAMP production, Cos7 cells, percent of the matched WT curve [7]	pEC50 of h-αCGRP-stimulated cAMP production, Cos7 cells, 15 min [7]	fold loss of calcitonin potency (cAMP production) against WT CTR, Cos7 cells (CTR-C-V_(1–154) (human))	fold loss of calcitonin potency (cAMP production) against WT CTR, Cos7 cells (N-V_(1–154)-CTR (human))	Molecule
71.5 % of WT	7.52 pEC50	83.5 % of WT	8.62 pEC50	6.63 pEC50	74.9 % of WT	8.16 pEC50	9.1 pEC50	81.2 % of WT	8.41 pEC50	77.3 % of WT	8.83 pEC50	74 % of WT	8.92 pEC50			Human αCGRP (from UniProt P06881 83-119) (peptide)
														3 fold	10 fold	B1
